# Positions count from the first letter of the chain named. Numbers in names are those of the source.
# B1: UmuD, wild type (natural protein, Escherichia coli, UniProt P0AG11 1-139, looked up)
# chain: MLFIKPADLREIVTFPLFSDLVQCGFPSPAADYVEQRIDLNQLLIQHPSATYFVKASGDSMIDGGISDGDLLIVDSAITASHGDIVIAAVDGEFTVKKLQLRPTVQLIPMNSAYSPITISSEDTLDVFGVVIHVVKAMR
# B2: UmuD G92K (natural protein, Escherichia coli, UniProt P0AG11 1-139, looked up)
# chain: B1 chain with G92K
# B3: UmuD D91K-G92K (natural protein, Escherichia coli, UniProt P0AG11 1-139, looked up)
# chain: B1 chain with D91K, G92K
# B4: UmuD D91K (natural protein, Escherichia coli, UniProt P0AG11 1-139, looked up)
# chain: B1 chain with D91K
# Assays:
# [1] = target: T1, DNA polymerase III α subunit (Escherichia coli, UniProt P10443 1-1160); test: single molecule DNA stretching
# T1 sequence (P10443 whole entry): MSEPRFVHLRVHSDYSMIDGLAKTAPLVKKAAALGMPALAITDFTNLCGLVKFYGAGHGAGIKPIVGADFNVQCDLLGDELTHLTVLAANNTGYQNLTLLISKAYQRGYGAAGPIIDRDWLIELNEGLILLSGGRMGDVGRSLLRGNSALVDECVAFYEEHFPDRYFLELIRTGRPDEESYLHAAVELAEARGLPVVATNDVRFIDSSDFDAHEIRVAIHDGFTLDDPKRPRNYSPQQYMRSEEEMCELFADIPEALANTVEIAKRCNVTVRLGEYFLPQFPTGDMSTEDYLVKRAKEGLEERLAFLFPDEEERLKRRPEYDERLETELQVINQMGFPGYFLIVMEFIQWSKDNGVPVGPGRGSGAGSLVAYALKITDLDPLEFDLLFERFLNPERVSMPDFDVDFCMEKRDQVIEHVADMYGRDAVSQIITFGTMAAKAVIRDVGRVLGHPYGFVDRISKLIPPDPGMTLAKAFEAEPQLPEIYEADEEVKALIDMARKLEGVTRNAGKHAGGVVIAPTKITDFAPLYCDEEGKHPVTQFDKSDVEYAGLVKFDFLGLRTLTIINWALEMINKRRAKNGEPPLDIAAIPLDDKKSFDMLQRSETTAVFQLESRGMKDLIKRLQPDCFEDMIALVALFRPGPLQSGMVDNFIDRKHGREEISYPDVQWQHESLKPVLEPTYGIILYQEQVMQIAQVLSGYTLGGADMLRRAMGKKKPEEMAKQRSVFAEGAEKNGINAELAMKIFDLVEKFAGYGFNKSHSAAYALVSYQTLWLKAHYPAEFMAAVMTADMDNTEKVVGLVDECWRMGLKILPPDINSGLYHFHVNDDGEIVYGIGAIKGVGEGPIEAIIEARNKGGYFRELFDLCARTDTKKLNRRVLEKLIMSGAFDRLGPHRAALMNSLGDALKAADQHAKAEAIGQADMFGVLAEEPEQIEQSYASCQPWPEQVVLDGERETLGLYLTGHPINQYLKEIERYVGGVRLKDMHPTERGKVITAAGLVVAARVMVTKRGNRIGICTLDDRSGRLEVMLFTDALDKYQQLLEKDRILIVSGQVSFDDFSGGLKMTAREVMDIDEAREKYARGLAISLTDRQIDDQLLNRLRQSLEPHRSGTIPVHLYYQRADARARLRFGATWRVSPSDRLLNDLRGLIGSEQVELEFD
# [2] = target: T1, DNA polymerase III α subunit; test: other fluorescence titration
Binder,Kd [1] [µM],Kd [2] [µM]
B1,0.34 ± 0.103,
B2,,1.3
B3,,32.5
B4,,18.1

# Source: article PMC3799427 (Nucleic Acids Research, 2013)
